Measurements published in IntAct's records for PubMed 16127465.

B1: Growth/differentiation factor 5 (Homo sapiens), P43026 (parent)
chain: MRLPKLLTFLLWYLAWLDLEFICTVLGAPDLGQRPQGTRPGLAKAEAKERPPLARNVFRPGGHSYGGGATNANARAKGGTGQTGGLTQPKKDEPKKLPPRPGGPEPKPGHPPQTRQATARTVTPKGQLPGGKAPPKAGSVPSSFLLKKAREPGPPREPKEPFRPPPITPHEYMLSLYRTLSDADRKGGNSSVKLEAGLANTITSFIDKGQDDRGPVVRKQRYVFDISALEKDGLLGAELRILRKKPSDTAKPAAPGGGRAAQLKLSSCPSGRQPAALLDVRSVPGLDGSGWEVFDIWKLFRNFKNSAQLCLELEAWERGRAVDLRGLGFDRAARQVHEKALFLVFGRTKKRDLFFNEIKARSGQDDKTVYEYLFSQRRKRRAPLATRQGKRPSKNLKARCSRKALHVNFKDMGWDDWIIAPLEYEAFHCEGLCEFPLRSHLEPTNHAVIQTLMNSMDPESTPPTCCVPTRLSPISILFIDSANNVVYKQYEDMVVESCGCR

Variants of: B1
Conditions: with bmr1a_human BMPR1A

effect of a mutation on the interaction | Variant
increasing interaction strength | R438L

Variants of: B1
Conditions: with bmr1b_human BMPR1B

effect of a mutation on the interaction | Variant
decreasing interaction strength | L441P
